# Laboratory results as given in PMC8849053.
# “And” between values parts separate entries of the source, which are not always exact repeats. Equal values may be shown once.
# Columns and labels:
# [1] = biological target: SARS-CoV-2 spike protein S2 (SARS-CoV-2); experiment: ITC
# [2] = biological target: SARS-CoV-2 spike protein S1 (SARS-CoV-2); experiment: ITC
substance,measurement,setting,value
truncated canavalin (from UniProt P10562 242-445) (domain or fragment),Kd,[1],10 µM and 80 µM
same,dH,[1],-0.8 kcal/mol
same,Kd,[2],20 µM and 100 µM
same,dH,[2],-6 kcal/mol and -7 kcal/mol
